Laboratory results taken from publication PMC10941009, “Structural basis for specific DNA sequence recognition by the transcription factor NFIL3” (The Journal of Biological Chemistry, 2024).
Numbering of substitutions follows the chain as printed.

What was measured:
Assay in all cases: ITC; ITC: 20 mM Tris pH 7.5, 150 mM NaCl, 25 °C; EMSA: same buffer, 4 °C, 6% native gel in 0.5x TBE
Settings in all cases: protein: recombinant; tags: His6-SUMO removed by TEV; chain copies: 2; blunt
C/EBPα D320E = C/EBPα D320E (human, UniProt P49715 281-340, D320E)
NFIL3 R94H = biological target: T1, NFIL3 R94H (human, UniProt Q16649 65-161, R94H)
T1 sequence: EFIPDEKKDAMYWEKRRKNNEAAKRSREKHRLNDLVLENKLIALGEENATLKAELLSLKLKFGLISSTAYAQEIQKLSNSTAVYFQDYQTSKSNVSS

NFIL3 E78G = biological target: T2, NFIL3 E78G (human, UniProt Q16649 65-161, E78G)
T2 sequence: T1 sequence with E14G, H30R

NFIL3 N84A = biological target: T3, NFIL3 N84A (human, UniProt Q16649 65-161, N84A)
T3 sequence: T1 sequence with N20A, H30R

NFIL3 A113T = biological target: T4, NFIL3 A113T (human, UniProt Q16649 65-161, A113T)
T4 sequence: T1 sequence with H30R, A49T

NFIL3 A113V = biological target: T5, NFIL3 A113V (human, UniProt Q16649 65-161, A113V)
T5 sequence: T1 sequence with H30R, A49V

NFIL3 E111Q = biological target: T6, NFIL3 E111Q (human, UniProt Q16649 65-161, E111Q)
T6 sequence: T1 sequence with H30R, E47Q

NFIL3 N112D = biological target: T7, NFIL3 N112D (human, UniProt Q16649 65-161, N112D)
T7 sequence: T1 sequence with H30R, N48D

NFIL3 R95Q = biological target: T8, NFIL3 R95Q (human, UniProt Q16649 65-161, R95Q)
T8 sequence: T1 sequence with H30R, R31Q

NFIL3 E111D = biological target: T9, NFIL3 E111D (human, UniProt Q16649 65-161, E111D)
T9 sequence: T1 sequence with H30R, E47D

C/EBPβ E309D = C/EBPβ E309D (human, UniProt P17676 259-336, E309D)
C/EBPβ E309D, sequence (P17676 259-336 E309D): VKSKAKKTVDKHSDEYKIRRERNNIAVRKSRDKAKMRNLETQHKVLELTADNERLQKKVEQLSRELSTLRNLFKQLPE

C/EBPα D320E, sequence (P49715 281-340 D320E): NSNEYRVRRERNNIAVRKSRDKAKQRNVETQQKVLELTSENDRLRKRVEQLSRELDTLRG

B1: TTACGTAA (dsDNA)
DNA 1: CATTACGTAATG
DNA 2: CATTACGTAATG
- binding signal (C/EBPα D320E): ~5 fold stronger than WT
- Kd (NFIL3 R94H): 4.01 ± 0.74 µM
- Kd (NFIL3 E78G): 2180 ± 150 nM
- Kd (NFIL3 N84A): 1490 ± 110 nM
- Kd (NFIL3 A113T): 220 ± 30 nM
- Kd (NFIL3 A113V): 120 ± 10 nM
- Kd (NFIL3 E111Q): 200 ± 20 nM
- Kd (NFIL3 N112D): 2150 ± 160 nM
- Kd (NFIL3 R95Q): 8.4 ± 0.72 µM
- binding signal (NFIL3 E111D): ~8 fold weaker than WT
- binding signal (C/EBPβ E309D): ~4 fold weaker than WT
